From IntAct's records for PubMed 15105431

B1: T-cell surface antigen CD2 (Homo sapiens), P06729 (parent)
chain: MSFPCKFVASFLLIFNVSSKGAVSKEITNALETWGALGQDINLDIPSFQMSDDIDDIKWEKTSDKKKIAQFRKEKETFKEKDTYKLFKNGTLKIKHLKTDDQDIYKVSIYDTKGKNVLEKIFDLKIQERVSKPKISWTCINTTLTCEVMNGTDPELNLYQDGKHLKLSQRVITHKWTTSLSAKFKCTAGNKVSKESSVEPVSCPEKGLDIYLIIGICGGGSLLMVFVALLVFYITKRKKQRSRRNDEELETRAHRVATEERGRKPHQIPASTPQNPATSQHPPPPPGHRSQAPSHRPPPPGHRVQHQPQKRPPAPSGTQVHQQKGPPLPRPRVQPKPPHGAAENSLSPSSN
partner: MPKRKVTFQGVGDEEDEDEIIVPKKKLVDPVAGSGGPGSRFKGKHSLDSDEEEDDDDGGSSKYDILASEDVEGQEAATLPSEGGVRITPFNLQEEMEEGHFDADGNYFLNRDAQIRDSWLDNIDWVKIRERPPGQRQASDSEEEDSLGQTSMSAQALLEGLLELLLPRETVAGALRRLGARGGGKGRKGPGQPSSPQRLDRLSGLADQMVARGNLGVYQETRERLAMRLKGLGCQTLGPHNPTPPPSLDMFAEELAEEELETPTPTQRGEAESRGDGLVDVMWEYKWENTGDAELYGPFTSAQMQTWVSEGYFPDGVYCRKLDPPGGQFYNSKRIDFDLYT

Variants of: B1
Conditions: with cd2b2_human CD2BP2, O95400

Effect of a mutation on the interaction, by site and new letter:
G301: H decreasing interaction strength; P decreasing interaction strength; S decreasing interaction strength; M disrupting interaction strength; N decreasing interaction strength; T disrupting interaction strength; K decreasing interaction strength; F decreasing interaction strength; V disrupting interaction strength; A disrupting interaction strength; Y decreasing interaction strength; I decreasing interaction strength; Q decreasing interaction strength
P299: K decreasing interaction strength; R disrupting interaction strength; N decreasing interaction strength; V disrupting interaction strength; Q disrupting interaction strength; F decreasing interaction strength; L disrupting interaction strength; H decreasing interaction strength; D disrupting interaction strength; E disrupting interaction strength; T disrupting interaction strength; I decreasing interaction strength; C decreasing interaction strength; A disrupting interaction strength; Y disrupting interaction strength
P300: S disrupting interaction strength; D disrupting interaction strength; H decreasing interaction strength; W decreasing interaction strength; E disrupting interaction strength; F decreasing interaction strength; Y decreasing interaction strength; L decreasing interaction strength; M decreasing interaction strength; Q decreasing interaction strength; V disrupting interaction strength; N decreasing interaction strength; R decreasing interaction strength; T disrupting interaction strength; A disrupting interaction strength; K decreasing interaction strength; I decreasing interaction strength; C decreasing interaction strength
H295: D decreasing interaction strength; E decreasing interaction strength
R296: D disrupting interaction strength; C decreasing interaction strength; A decreasing interaction strength; L decreasing interaction strength; E disrupting interaction strength; M decreasing interaction strength
P298: M disrupting interaction strength; E disrupting interaction strength; D disrupting interaction strength; N disrupting interaction strength; H decreasing interaction strength
S294: D decreasing interaction strength; E decreasing interaction strength
H302: D decreasing interaction strength
